From IntAct's records for PubMed 21586138

B1: E3 ubiquitin-protein ligase SH3RF1 (Homo sapiens), Q7Z6J0 (parent)
chain: MDESALLDLLECPVCLERLDASAKVLPCQHTFCKRCLLGIVGSRNELRCPECRTLVGSGVEELPSNILLVRLLDGIKQRPWKPGPGGGSGTNCTNALRSQSSTVANCSSKDLQSSQGGQQPRVQSWSPPVRGIPQLPCAKALYNYEGKEPGDLKFSKGDIIILRRQVDENWYHGEVNGIHGFFPTNFVQIIKPLPQPPPQCKALYDFEVKDKEADKDCLPFAKDDVLTVIRRVDENWAEGMLADKIGIFPISYVEFNSAAKQLIEWDKPPVPGVDAGECSSAAAQSSTAPKHSDTKKNTKKRHSFTSLTMANKSSQASQNRHSMEISPPVLISSSNPTAAARISELSGLSCSAPSQVHISTTGLIVTPPPSSPVTTGPSFTFPSDVPYQAALGTLNPPLPPPPLLAATVLASTPPGATAAAAAAGMGPRPMAGSTDQIAHLRPQTRPSVYVAIYPYTPRKEDELELRKGEMFLVFERCQDGWFKGTSMHTSKIGVFPGNYVAPVTRAVTNASQAKVPMSTAGQTSRGVTMVSPSTAGGPAQKLQGNGVAGSPSVVPAAVVSAAHIQTSPQAKVLLHMTGQMTVNQARNAVRTVAAHNQERPTAAVTPIQVQNAAGLSPASVGLSHHSLASPQPAPLMPGSATHTAAISISRASAPLACAAAAPLTSPSITSASLEAEPSGRIVTVLPGLPTSPDSASSACGNSSATKPDKDSKKEKKGLLKLLSGASTKRKPRVSPPASPTLEVELGSAELPLQGAVGPELPPGGGHGRAGSCPVDGDGPVTTAVAGAALAQDAFHRKASSLDSAVPIAPPPRQACSSLGPVLNESRPVVCERHRVVVSYPPQSEAELELKEGDIVFVHKKREDGWFKGTLQRNGKTGLFPGSFVENI
partner: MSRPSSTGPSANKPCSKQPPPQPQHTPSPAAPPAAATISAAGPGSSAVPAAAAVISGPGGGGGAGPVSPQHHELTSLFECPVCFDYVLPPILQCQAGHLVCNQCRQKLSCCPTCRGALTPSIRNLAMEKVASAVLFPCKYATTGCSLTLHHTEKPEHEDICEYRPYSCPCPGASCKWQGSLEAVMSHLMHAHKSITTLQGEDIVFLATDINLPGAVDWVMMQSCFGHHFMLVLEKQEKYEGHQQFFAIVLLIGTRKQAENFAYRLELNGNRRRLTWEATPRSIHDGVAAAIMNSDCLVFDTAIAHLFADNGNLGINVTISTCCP

Variants of: B1
Conditions: with siah2_human SIAH2, O43255

Variant	effect of a mutation on the interaction
V605N;P607N	disrupting interaction
